According to patent US20250262210A1 (TRUSTEES OF COLUMBIA UNIVERSITY IN THE CITY OF NEW YORK, published 2025):

Legend:
DMXL2 = DMXL2 (human, UniProt Q8TDJ6 1-3036, limits assumed); experiment: IP/MS, LZTR1 R810W-FLAG, U87
Method in brief: (§1)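 Extracted peptides in 3% acetonitrile/0.1% formic acid ran on a 50 cm C18 column into an Orbitrap Fusion, with MaxQuant identification and spectral counting.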

POLR3A = target: T1, POLR3A (human, UniProt O14802 1-1390); experiment: IP/MS, LZTR1 R810W-FLAG, U87
T1 sequence (looked up): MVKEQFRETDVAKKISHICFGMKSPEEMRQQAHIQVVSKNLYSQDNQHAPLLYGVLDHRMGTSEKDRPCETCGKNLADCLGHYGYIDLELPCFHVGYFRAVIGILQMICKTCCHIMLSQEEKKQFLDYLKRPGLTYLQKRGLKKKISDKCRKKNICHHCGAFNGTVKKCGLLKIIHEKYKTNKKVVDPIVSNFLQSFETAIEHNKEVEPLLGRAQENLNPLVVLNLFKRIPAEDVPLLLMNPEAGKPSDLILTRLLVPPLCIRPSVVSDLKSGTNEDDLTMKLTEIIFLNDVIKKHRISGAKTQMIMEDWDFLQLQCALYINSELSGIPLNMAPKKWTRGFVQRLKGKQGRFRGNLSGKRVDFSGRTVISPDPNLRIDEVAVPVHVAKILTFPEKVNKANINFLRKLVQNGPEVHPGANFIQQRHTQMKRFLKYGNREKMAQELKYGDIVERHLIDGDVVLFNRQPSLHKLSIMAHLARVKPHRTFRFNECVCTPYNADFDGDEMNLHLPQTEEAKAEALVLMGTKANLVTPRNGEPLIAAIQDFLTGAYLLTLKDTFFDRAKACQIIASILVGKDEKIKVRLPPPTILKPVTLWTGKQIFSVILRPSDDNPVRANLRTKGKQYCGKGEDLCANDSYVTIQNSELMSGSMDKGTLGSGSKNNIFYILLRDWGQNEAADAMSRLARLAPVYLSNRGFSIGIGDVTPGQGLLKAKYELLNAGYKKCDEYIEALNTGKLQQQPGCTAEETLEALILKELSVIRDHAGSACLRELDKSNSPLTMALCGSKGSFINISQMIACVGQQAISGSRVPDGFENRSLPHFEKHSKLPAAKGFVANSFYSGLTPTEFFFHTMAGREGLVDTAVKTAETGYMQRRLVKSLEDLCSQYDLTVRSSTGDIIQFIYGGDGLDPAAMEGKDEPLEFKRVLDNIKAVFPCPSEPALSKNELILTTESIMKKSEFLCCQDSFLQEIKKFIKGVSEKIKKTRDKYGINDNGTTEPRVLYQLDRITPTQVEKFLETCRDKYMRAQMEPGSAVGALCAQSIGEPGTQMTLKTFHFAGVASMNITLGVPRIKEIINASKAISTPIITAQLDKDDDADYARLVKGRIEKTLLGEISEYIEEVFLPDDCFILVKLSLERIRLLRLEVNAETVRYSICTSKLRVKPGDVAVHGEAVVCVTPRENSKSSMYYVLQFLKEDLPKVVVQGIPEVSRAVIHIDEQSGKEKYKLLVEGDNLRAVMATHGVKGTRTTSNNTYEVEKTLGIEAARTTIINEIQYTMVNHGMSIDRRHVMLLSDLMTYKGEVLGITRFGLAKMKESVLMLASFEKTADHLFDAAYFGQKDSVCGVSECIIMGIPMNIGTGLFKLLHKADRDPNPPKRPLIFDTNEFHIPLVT
Method in brief: as §1

Sequence of DMXL2 (Q8TDJ6 whole entry, the tested form may be a part): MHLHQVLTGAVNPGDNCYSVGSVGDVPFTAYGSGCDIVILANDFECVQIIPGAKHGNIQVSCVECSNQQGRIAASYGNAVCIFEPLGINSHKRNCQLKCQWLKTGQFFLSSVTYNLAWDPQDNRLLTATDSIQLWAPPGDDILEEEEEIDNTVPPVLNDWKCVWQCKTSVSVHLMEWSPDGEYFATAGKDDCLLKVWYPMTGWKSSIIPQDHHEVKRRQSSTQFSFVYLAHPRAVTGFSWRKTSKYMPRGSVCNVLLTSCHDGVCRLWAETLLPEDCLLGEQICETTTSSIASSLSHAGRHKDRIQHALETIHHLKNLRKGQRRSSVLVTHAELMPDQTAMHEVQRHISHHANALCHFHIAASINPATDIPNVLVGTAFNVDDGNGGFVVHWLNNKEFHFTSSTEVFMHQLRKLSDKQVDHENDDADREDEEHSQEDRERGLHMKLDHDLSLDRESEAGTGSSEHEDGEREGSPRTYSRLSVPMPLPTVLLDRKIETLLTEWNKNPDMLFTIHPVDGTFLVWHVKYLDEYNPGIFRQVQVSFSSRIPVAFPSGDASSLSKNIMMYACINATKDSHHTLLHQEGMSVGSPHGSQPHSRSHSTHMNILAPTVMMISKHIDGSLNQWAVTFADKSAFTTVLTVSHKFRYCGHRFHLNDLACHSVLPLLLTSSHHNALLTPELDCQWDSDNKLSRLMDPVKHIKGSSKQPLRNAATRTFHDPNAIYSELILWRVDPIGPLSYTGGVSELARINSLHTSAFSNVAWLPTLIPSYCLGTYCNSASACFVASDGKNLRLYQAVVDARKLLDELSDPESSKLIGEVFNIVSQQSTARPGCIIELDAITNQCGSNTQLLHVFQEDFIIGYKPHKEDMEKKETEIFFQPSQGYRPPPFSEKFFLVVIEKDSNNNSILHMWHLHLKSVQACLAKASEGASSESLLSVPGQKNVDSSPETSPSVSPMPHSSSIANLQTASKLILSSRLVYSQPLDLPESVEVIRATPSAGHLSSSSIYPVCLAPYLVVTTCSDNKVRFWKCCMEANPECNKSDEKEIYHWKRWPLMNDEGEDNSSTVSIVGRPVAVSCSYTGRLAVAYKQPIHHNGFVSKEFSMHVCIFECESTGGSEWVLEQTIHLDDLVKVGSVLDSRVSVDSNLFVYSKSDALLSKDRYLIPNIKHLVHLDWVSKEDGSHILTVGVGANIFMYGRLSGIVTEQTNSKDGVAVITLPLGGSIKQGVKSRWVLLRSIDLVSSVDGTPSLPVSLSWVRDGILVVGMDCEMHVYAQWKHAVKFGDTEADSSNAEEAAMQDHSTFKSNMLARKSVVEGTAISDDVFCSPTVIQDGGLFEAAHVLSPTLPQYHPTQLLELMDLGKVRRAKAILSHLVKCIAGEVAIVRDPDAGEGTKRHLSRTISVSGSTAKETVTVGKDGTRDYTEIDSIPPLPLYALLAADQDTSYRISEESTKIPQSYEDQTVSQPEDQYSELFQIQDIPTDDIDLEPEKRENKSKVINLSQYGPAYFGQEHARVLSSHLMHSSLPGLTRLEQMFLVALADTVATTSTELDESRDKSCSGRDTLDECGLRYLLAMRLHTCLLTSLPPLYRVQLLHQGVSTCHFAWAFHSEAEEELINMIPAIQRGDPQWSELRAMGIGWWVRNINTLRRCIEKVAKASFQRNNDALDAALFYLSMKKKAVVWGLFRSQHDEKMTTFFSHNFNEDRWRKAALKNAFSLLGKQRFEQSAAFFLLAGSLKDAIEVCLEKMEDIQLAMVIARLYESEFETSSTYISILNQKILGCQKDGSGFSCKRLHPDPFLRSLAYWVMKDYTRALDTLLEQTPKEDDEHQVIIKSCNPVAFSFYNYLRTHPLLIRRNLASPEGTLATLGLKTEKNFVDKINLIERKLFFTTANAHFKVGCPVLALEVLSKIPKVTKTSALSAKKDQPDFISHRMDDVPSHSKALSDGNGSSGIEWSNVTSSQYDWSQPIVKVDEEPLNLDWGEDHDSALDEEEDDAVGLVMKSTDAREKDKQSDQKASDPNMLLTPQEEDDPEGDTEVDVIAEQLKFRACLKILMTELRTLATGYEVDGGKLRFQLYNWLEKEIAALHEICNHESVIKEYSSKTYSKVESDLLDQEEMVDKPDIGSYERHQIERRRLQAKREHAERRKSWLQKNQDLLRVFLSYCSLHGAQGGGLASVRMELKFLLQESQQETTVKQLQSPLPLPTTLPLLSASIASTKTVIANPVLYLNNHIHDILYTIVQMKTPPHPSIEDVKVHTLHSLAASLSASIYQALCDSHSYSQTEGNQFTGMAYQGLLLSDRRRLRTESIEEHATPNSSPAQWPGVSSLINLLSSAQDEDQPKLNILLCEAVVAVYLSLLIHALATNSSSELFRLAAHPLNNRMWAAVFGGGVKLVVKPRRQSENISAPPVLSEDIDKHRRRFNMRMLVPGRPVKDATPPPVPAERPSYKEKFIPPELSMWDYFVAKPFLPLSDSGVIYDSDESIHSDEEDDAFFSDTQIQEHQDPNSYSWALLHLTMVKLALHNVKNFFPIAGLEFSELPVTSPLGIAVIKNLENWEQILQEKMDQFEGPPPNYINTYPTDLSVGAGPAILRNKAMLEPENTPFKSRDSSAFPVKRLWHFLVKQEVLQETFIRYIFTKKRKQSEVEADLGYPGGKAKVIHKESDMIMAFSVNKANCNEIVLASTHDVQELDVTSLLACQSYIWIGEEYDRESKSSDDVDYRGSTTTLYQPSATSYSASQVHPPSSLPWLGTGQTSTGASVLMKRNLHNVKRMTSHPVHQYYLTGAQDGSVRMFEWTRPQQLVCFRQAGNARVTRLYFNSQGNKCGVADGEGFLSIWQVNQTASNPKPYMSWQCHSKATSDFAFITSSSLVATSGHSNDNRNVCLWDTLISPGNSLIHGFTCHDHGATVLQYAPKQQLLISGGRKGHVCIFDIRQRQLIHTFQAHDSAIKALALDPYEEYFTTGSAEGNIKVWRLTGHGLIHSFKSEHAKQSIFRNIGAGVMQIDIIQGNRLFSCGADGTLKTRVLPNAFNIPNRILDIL

B1: LZTR1 R810W-FLAG (other, human, UniProt Q8N653 1-840, looked up)
chain: MAGPGSTGGQIGAAALAGGARSKVAPSVDFDHSCSDSVEYLTLNFGPFETVHRWRRLPPCDEFVGARRSKHTVVAYKDAIYVFGGDNGKTMLNDLLRFDVKDCSWCRAFTTGTPPAPRYHHSAVVYGSSMFVFGGYTGDIYSNSNLKNKNDLFEYKFATGQWTEWKIEGRLPVARSAHGATVYSDKLWIFAGYDGNARLNDMWTIGLQDRELTCWEEVAQSGEIPPSCCNFPVAVCRDKMFVFSGQSGAKITNNLFQFEFKDKTWTRIPTEHLLRGSPPPPQRRYGHTMVAFDRHLYVFGGAADNTLPNELHCYDVDFQTWEVVQPSSDSEVGGAEVPERACASEEVPTLTYEERVGFKKSRDVFGLDFGTTSAKQPTQPASELPSGRLFHAAAVISDAMYIFGGTVDNNIRSGEMYRFQFSCYPKCTLHEDYGRLWESRQFCDVEFVLGEKEECVQGHVAIVTARSRWLRRKITQARERLAQKLEQEAAPVPREAPGVAAGGARPPLLHVAIREAEARPFEVLMQFLYTDKIKYPRKGHVEDVLLIMDVYKLALSFQLCRLEQLCRQYIEASVDLQNVLVVCESAARLQLSQLKEHCLNFVVKESHFNQVIMMKEFERLSSPLIVEIVRRKQQPPPRTPLDQPVDIGTSLIQDMKAYLEGAGAEFCDITLLLDGHPRPAHKAILAARSSYFEAMFRSFMPEDGQVNISIGEMVPSRQAFESMLRYIYYGEVNMPPEDSLYLFAAPYYYGFYNNRLQAYCKQNLEMNVTVQNVLQILEAADKTQALDMKRHCLHIIVHQFTKVSKLPTLWSLSQQLLLDIIDSLASHISDKQCAELGADI
notes: Stably expressed in U87 cells by lentivirus; also called LZTR1-FLAG-R810W; LZTR1 RW; not shown: FLAG tag
binding result (DMXL2): binds | binding result (POLR3A): binds
